Patent US20260242730A1 (POINTLOMA BIOSCIENCES, published 2026)

T1: recombinant human TROP2 protein (human, UniProt P09758 27-274)
T1 sequence (looked up): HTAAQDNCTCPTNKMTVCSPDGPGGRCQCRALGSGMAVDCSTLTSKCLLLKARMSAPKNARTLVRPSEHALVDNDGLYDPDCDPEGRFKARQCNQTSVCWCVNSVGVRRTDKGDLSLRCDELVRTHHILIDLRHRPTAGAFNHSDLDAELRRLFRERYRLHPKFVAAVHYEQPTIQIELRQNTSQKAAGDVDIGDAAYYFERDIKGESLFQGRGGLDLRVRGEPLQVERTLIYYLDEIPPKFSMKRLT

T2: recombinant human TROP2 protein (human, UniProt P09758 27-274)
T2 chain: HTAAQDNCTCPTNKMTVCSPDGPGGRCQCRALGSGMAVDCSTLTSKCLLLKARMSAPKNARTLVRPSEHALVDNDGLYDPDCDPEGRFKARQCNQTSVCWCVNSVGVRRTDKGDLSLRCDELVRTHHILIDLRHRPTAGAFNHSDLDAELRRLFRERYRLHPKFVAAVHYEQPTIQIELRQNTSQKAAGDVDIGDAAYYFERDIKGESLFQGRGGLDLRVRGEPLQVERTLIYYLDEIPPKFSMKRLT


Assays:
[1] = target: T3, human PD-L1 (antigen of panning and phage ELISA) (human, UniProt Q9NZQ7 19-238, biotinylated (panning antigen)); experiment: phage ELISA of clones panned on biotinylated human PD-L1
T3 construct: also called biotinylated human PD-L1
T3 sequence (Q9NZQ7 19-238 limits assumed): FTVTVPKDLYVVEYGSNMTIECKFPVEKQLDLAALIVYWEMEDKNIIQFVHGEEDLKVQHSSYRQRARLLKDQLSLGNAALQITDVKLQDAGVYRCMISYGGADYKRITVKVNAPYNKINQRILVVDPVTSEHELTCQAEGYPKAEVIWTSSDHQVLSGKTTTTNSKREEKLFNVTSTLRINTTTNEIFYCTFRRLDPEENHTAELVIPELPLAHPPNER
Excerpt: The animal boosted four times every two weeks. After confirming the serum titer against PD-L1, PBMC was isolated and used for phage display library construction. Anti-PD-L1 binders were isolated with the immunized phage display library using liquid phase Biopanning on biotinylated human PD-L1. Stringency was increased during successive rounds by decreasing antigen concentration, increasing the number and duration of washes, and/or changing the duration of selections. The panning process was repeated three to four times until the output phage enrichment was identified. The eluted phages were diluted and spread on a petri dish to grow single colonies. Individual phage clones were selected and amplified. 384 single colonies were selected and tested for specificity by ELISA. […] After sequencing the positive clones, three unique sequences were obtained based on amino acid sequences.

[2] = target: T1, recombinant human TROP2 protein; experiment: flow cytometry, titration of TROP2 protein on CAR γδ T cells
[3] = target: T2, recombinant human TROP2 protein; experiment: binding of TROP2 protein to binder-expressing γδ T cells

binding result [1]	binding result [2]	EC50 [3] [nM]	Binder
binds	–	–	anti-PD-L1 #PD1 VHH (VHH) VHH: DVQLQESGGGLVQAGGSLRLSCAASESIASINVMGWYRQAPGKQRELVAIITNRGTTSYPDSVKGRFTISRDNGKNTVYLQMNTLKPEDTAVYYCNAPWTDGINYWGKGTQVTVSS
binds	–	–	anti-PD-L1 #PD2 VHH (VHH) VHH: DVQLQESGGGLVEPGGSLRLSCAASGFTFNHYGMSWVRQAPGKGLQWVSTLFTTGSSQYANSVKGRFTISRDAAENTLYLHMNNLKPEDTAVYFCAKGVGLGSERGPGTQVTVSS
–	binds	6.81	TROP2 CAR with anti-TROP2 #PL02 scFv (VL-linker-VH) adopted from monoclonal antibody hRS7, on γδ T cells (other, not shown: small tags and cut ends, CAR on γδ T cells) DIQLTQSPSSLSASVGDRVSITCKASQDVSIAVAWYQQKPGKAPKLLIYSASYRYTGVPDRFSGSGSGTDFTLTISSLQPEDFAVYYCQQHYITPLTFGAGTKVEIKGGGGSGGGGSGGGGSQVQLQQSGSELKKPGASVKVSCKASGYTFTNYGMNWVKQAPGQGLKWMGWINTYTGEPTYTDDFKGRFAFSLDTSVSTAYLQISSLKADDTAVYFCARGGFGSSYWYFDVWGQGSLVTVSS
binds	–	–	anti-PD-L1 #PD3 VHH (VHH) VHH: DVQLQESGGGLVQAGDSLGLSCAASGRAFSLFEMAWYRQAPGKAREFVAAIMWRGGHTVYADSVKGRSTISSDNTKNTVYLQMNSLKPEDTAIYYCRGKVVGSDYWGQGTQVTVSS
